In publication PMC7589674 one finds stoichiometry N data, which are given here for one substance.

For the assay, the target named is The-05 (variant of the HFt-MP-PASE construct bearing the Lys53Glu, Lys71Glu, Thr135Glu and Lys143Glu mutations) (human). Briefly: SEC + other: dynamic light scattering + other: negative-stain TEM; empty The-05; Superose 6 in PBS pH 7.4; DLS at 25 °C, 1 mg/mL in diluted PBS (1:2); TEM 0.1 mg/mL, 2% uranyl acetate; assembly of the subunits into the cage.

As to “The-05 (variant of the HFt-MP-PASE construct bearing the Lys53Glu, Lys71Glu, Thr135Glu and Lys143Glu mutations) (designed binder)”, the stoichiometry N was 24.
